According to patent publication US20250346657A1 (INTERVET, published 2025):

Target: T1, feline NGF (feline, UniProt A0ABI7YSK6 122-241)
T1 construct: domain: C-terminal portion; also called fNGF; feline beta-NGF
Assay: ELISA, feline NGF

B1: human-feline chimeric Fulranumab (antibody)
heavy: EVQLVESGGGLVQPGGSLRLSCAASGFTLRSYSMNWVRQAPGKGLEWVSYISRSSHTIFYADSVKGRFTISRDNAKNSLYLQMDSLRDEDTAMYYCARVYSSGWHVSDYFDYWGQGILVTVSSASTTAPSVFPLAPSCGTTSGATVALACLVLGYFPEPVTVSWNSGALTSGVHTFPAVLQASGLYSLSSMVTVPSSRWLSDTFTCNVAHPPSNTKVDKTVRKTDHPPGPKPCDCPKCPPPEMLGGPSIFIFPPKPKDTLSISRTPEVTCLVVALGPDDSDVQITWFVDNTQVYTAKTSPREEQFASTYRVVSVLPILHQDWLKGKEFKCKVNSKSLPSPIERTISKAKGQPHEPQVYVLPPAQEELSRNKVSVTCLIKSFHPPDIAVEWEITGQPEPENNYRTTPPQLDSDGTYFVYSKLSVDRSHWQRGNTYTCSVSHEALHSHHTQKSLTQSPGK
light: AIQLTQSPSSLSASVGDRVTITCRASQGISSALAWYQQKPGKAPKLLIYDASSLESGVPSRFSGSGSGTDFTLTISSLQPEDFATYYCQQFNSYPLTFGGGTKVEIKRSDAQPSVFLFQPSLDELHTGSASIVCILNDFYPKEVNVKWKVDGVVQNKGIQESTTEQNSKDSTYSLSSTLTMSSTEYQSHEKFSCEVTHKSLASTLVKSFNRSECQRE
notes: Chains from the 'List of heavy and light chains to make human-feline chimeric and felinized antibodies'; also called Ful Chimeric; Ful Chim
For B1, the EC50 was 0.018 to 0.019 nM.
